The source of these data is the DeepSol protein solubility set.

The nature of this series: soluble on expression in E. coli; label from the status in PepcDB or PDB records.
Turning to “SLQLESLISAAPALSQQAVDQEWSYMDFLEHLLHEEKLARHQRKQAMYTRMAAFPAVKTFEEYDFTFATGAPQKQLQSLRSLSFIERNENIVLLGPSGVGKTHLAIAMGYEAVRAGIKVRFTTAADLLLQLSTEQRQGRYKTTLQRGVMAPRLLIIDEIGYLPFSQEEAKLFFQVIAKRYEKSAMILTSNLPFGQWDQTFAGDAALTSAMLDRILHHSHVVQIKGESYRLRQKRKAGVIAEANP”, the “soluble on expression in E. coli” value is listed as “not soluble”.
On to “MKAKLKQLRRLVESSFPEIENFHEKVDASFEKLENAKSFWSEIYVAHLKVVGDGVKVPESVFIKVPRISENVLRCEDESAVNHLNDVLLYYSKKENLFYKHFEYGSIPNFPFPKVYFTEDINGEATGGIVAENLSEKVFAVEHIPGLKHEQILRLMEALAGLHSFLMKRDDKSYVESFVEGAHGRETFSEGMQNMMFEEALTLENVSPEVFGNDRIRNIKWSFDYSIKNKATADAISAFPGIICHADLNVTNVLWKKDSAKDEISAIIDYQMLFIGSIAFDIIRVLTLGLNREIRRKMTQNYLDHYHKTLTELSNGKAPFSMEELLHQYSLIYPFSSNFSLFGIALYIKMYSDGTLGNPEDKEENCKELIDRALGIVEDIEALKNNYK”, for which the “soluble on expression in E. coli” value is listed as “not soluble”.
With “TLPFRIGHGFDLHRLEPGYPLIIGGIVIPHDRGCEAHSDGDVLLHCVVDAILGALGLPDIGQIFPDSDPKWKGAASSVFIKEAVRLMDEAGYEIGNLDATLILQRPKISPHKETIRSNLSKLLGADPSVVNLKAKTHEKVDSLGENRSIAAHTVILLMKK” the entry was “soluble”.
In the case of “MGYCIIIPAYNAARTLPAVVREVLGLGMPCLVVDDGSTDGTSATVEGLGVHLLRHDGNRGKGAALRTGFEWALAHGYSGVVTLDADGQHDPTAIPLLAATARERNVDILIASRDTQFREMAGLRSVWNRFGVWCMRKRTGFTITDSQSGFRWYSARLLKGVSLEASGYHLEMEILMKAWRGGFAIDSLPVAARVADGRATSHFRPVRDTWNICMTFLRHMLEHHHHHH”, the “soluble on expression in E. coli” value is given as “soluble”.
Regarding “MQLDEDDMIINIFWADDRSISDYNLFGDVICFEQLIRPMHMIDPLLICRGQSSQANSCVW”, the “soluble on expression in E. coli” value was “not soluble”.
Turning to “MAHHHHHHMLRLCRVSLRVQSHQKKRAQHPNAGTRFGRVYNRGFIRYGFGGFGMSVYTPKKDRRFRVQPLPSLHANSLADDTPLVTTTRTLSPNFRAFALQDGGVFFTHPSHEQVMRVGQNILAEETKATGMTSMDTYVNSRIQSIIAENTVENVALSHWRRRHMWNLVRTHGKLQRHWGVSDATKGARSNIYGRPS”, the “soluble on expression in E. coli” value was “not soluble”.
As to “MGSDKIHHHHHHMEVFCDVDDFCAVFIPEWEKTLLTDGTRKRQRAGRMTMSEVMTIIILFQMSHHRDFKNFYIGYLAHFYKSAFPNLLSYTRFLEVMPTALVPLCSDFTCLKSEPTGTEFVDSTRIKVCHNLRIHRHKTLAGLACRGKGTMGWFYGFKLHLIVNHQGGIVAAKVTPANVHDTKPMNEMVRSDMDKLYADKGFISKALSSELQEKGVTLVTNVRKNMKEKVMSLWDRAMLSRRFIIETINDQLKNISQIEHSRHRSGHGFMLNMIAGLIAYQLKDNKPQLNITSAEFNAIAVMAR”, the “soluble on expression in E. coli” value is “not soluble”.
With “MNRDDAPPIPDALSHRQLNRWLETAMQESSTPAKESNDILSAELERWANHTRFLLQRMAHKGDAIGSDRSPQQVMALGSFRTHLMLGLQALKASQPGR” the entry was “not soluble”.
In the case of “MRGSHHHHHHPEYDYIRDGNAIYERSFAIIRAEADLSRFSEEEADLAVRMVHACGSVEATRQFVFSPDFVSSARAALKAGAPILCDAEMVAHGVTRARLPAGNEVICTLRDPRTPALAAEIGNTRSAAALKLWSERLAGSVVAIGNAPTALFFLLEMLRDGAPKPAAILGMPVGFVGAAESKDALAENSYGVPFAIVRGRLGGSAMTAAALNSLARPGL”, the “soluble on expression in E. coli” value is listed as “soluble”.
The result for “MSLYEPADGILETHVTWEDVEKDLQQSLGTRATFGENKRATNISDLKGFMSRIACLEPDWQNIEEGKELPSKFALKISSQLALVALSKIMNFEEGAGFSEEKLKKFSSLTKECHNREVDAYKVLMKFNHPDIPYTKGYMIIDFVPNIQTVEMYKSISADTIIPIIRGVATFSALGERLSKEDQHFVMGPTYLEMIFEDFFNDVELKKKFDTLRTTFEETENQEKVEKLITVFEHYKSLVKKYTNISDILGVKLVLNHGDLSQPNVLFSLDPQNKLKLEAIIDWQCVSRMPPGLDTARLLLGCLSGQERRERGTELLKVYHETYTSVFGEELFTFQELQELFNLFAPMMAMMLLPVMPSSIQSAIIPEEDKVSALKEVKTKMIAMMEDILEIHDNNLNHFSDFMKI” reads “not soluble”; that for “MGSDKIHHHHHHMNTVTIIGCGWFGLPLATQLVKQGIKVKASKRHPEDLVQLQQAGVDAYQLNLANVNSQAKNSSLFDADAIVINLPPGLRRGETDYLGYLTQLITLMGEHQYQKIIFISTTGVYPSLDQTVTEQDAAAFNDTSRTLLQAEAMFSAMKNSCIVRFSGLVGPKRHPGRFFAGKTDVSGANVAVNLVHLDDCIAAVSLILSRNDTLPIYNLAANAHPTRGEFYVAAAEHLGLTAPEFNQQQQPNKTIDGQLICHHLGFTYAFNNPFKMLDAC”, “not soluble”.
Consider “GAMAPATVNVEVLQDKLDHPWALAFLPDNHGMLITLRGGELRHWQAGKGLSAPLSGVPDVWAHGQGGLLDVVLAPDFAQSRRIWLSYSEVGDDGKAGTAVGYGRLSDDLSKVTDFRTVFRQMPKLSTGNHFGGRLVFDGKGYLFIALGENNQRPTAQDLDKLQGKLVRLTDQGEIPDDNPFIKESGVRAEIWSYGIRNPQGMAMNPWSNALWLNEHGPRGGDEINIPQKGKNYGWPLATWGINYSGFKIPEAKGEIVAGTEQPVFYWKDSPAVSGMAFYNSDKFPQWQQKLFIGALKDKDVIVMSVNGDKVTEDGRILTDRGQRIRDVRTGPDGYLYVLTDESSGELLKVSPR”, for which the “soluble on expression in E. coli” value is given as “soluble”.
In the case of “MKLAVIAANGQAGKAIVEEAVKRGHEVTAIVRSENKSQAESIIKKDLFELTKDDLTGFDAVISAFGAYTPDTLPLHSKSIELFNQLLAGTQTRFLVVGGAGSLYIDETKTTRLLDTPDFPEEFKPLAKAQADELDLLRTKNNLNWTFVSPAVDFIPDGEKTGNYILAGEIFTTNEKGISQISYADYAIGLVDELEKGHHIKERISLLEKLEHHHHHH”, the “soluble on expression in E. coli” value is recorded as “soluble”.
As for “MGHHHHHHGGHMSLKNYFLQRRTLMTEQLPNCPECGSAYAYEDRGLFICPECGHEWSPTEEVAEEGLVVKDSNGNLLADGDSVTVIKDLKVKGASGAIKQGTKVKNIRLVEGDHNIDCKVDGFGPMKLKSEFVKKNEGGS”, the “soluble on expression in E. coli” value is reported as “soluble”.
Regarding “MTKLQLKYRELKIISVIAASENISHAATVLGIAQANVSKYLADFESKVGLKVFDRTTRQLMLTPFGTALLPYINDMLDRNEQLNNFIADYKHEKRGRVTIYAPTGIITYLSKHVIDKIKDIGDITLSLKTCNLERNAFYEGVEFPDDCDVLISYAPPKDESLVASFITQYAVTAYASQRYLEKHPISRPDELEHHSCILIDSMMIDDANIWRFNVAGSKEVRDYRVKGNYVCDNTQSALELARNHLGIVFAPDKSVQSDLQDGTLVPCFQQPYEWWLDLVAIFRKREYQPWRVQYVLDEMLREIRHQLAQSQQLRPEQAAESED”, the “soluble on expression in E. coli” value is recorded as “soluble”.
With “RSVRVLVDMDGVLADFEAGLLRGFRRRFPEEPHVPLEQRRGFLAREQYRALRPDLADKVASVYEAPGFFLDLEPIPGALDAVREMNDLPDTQVFICTSPLLKYHHCVGEKYRWVEQHLGPQFVERIILTRDKTVVLGDLLIDDKDTVRGQEETPSWEHILFTCCHNRHLVLPPTRRRLLSWSDNWREILDSKR” the entry was “soluble”.
Consider “MGSDKIHHHHHHMIEQIGSVEEADAGKVLESLVLSFSPSLLPLRQRWRNNGLSADFLGDYVTTFFPGAGDDTTTADRQKHAKAAVSYIANELLENAMKYSAAESTRPITITLSLEAERITFIETNPVSRARAATFHSYATELIASDPMEMYLRILEEERSDDDGSGLGLITMINDYNASLSWRFEDPGEDTVMVSTIVQIPV”, for which the “soluble on expression in E. coli” value is recorded as “not soluble”.
